# From patent US20050164345A1, “Synthesis of human procollagens and collagens in recombinant DNA systems” (priority 1992, published 2005)
# B1: Proα1 (III) chains: Triton X-100 extract of insect cells expressing only proα1 chains of human type III procollagen (protein, UniProt P02461 24-1466, looked up)
# pro-form: QQEAVEGGCSHLGQSYADRDVWKPEPCQICVCDSGSVLCDDIICDDQELDCPNPEIPFGECCAVCPQPPTAPTRPPNGQGPQGPKGDPGPPGIPGRNGDPGIPGQPGSPGSPGPPGICESCPTGPQNYSPQYDSYDVKSGVAVGGLAGYPGPAGPPGPPGPPGTSGHPGSPGSPGYQGPPGEPGQAGPSGPPGPPGAIGPSGPAGKDGESGRPGRPGERGLPGPPGIKGPAGIPGFPGMKGHRGFDGRNGEKGETGAPGLKGENGLPGENGAPGPMGPRGAPGERGRPGLPGAAGARGNDGARGSDGQPGPPGPPGTAGFPGSPGAKGEVGPAGSPGSNGAPGQRGEPGPQGHAGAQGPPGPPGINGSPGGKGEMGPAGIPGAPGLMGARGPPGPAGANGAPGLRGGAGEPGKNGAKGEPGPRGERGEAGIPGVPGAKGEDGKDGSPGEPGANGLPGAAGERGAPGFRGPAGPNGIPGEKGPAGERGAPGPAGPRGAAGEPGRDGVPGGPGMRGMPGSPGGPGSDGKPGPPGSQGESGRPGPPGPSGPRGQPGVMGFPGPKGNDGAPGKNGERGGPGGPGPQGPPGKNGETGPQGPPGPTGPGGDKGDTGPPGPQGLQGLPGTGGPPGENGKPGEPGPKGDAGAPGAPGGKGDAGAPGERGPPGLAGAPGLRGGAGPPGPEGGKGAAGPPGPPGAAGTPGLQGMPGERGGLGSPGPKGDKGEPGGPGADGVPGKDGPRGPTGPIGPPGPAGQPGDKGEGGAPGLPGIAGPRGSPGERGETGPPGPAGFPGAPGQNGEPGGKGERGAPGEKGEGGPPGVAGPPGGSGPAGPPGPQGVKGERGSPGGPGAAGFPGARGLPGPPGSNGNPGPPGPSGSPGKDGPPGPAGNTGAPGSPGVSGPKGDAGQPGEKGSPGAQGPPGAPGPLGIAGITGARGLAGPPGMPGPRGSPGPQGVKGESGKPGANGLSGERGPPGPQGLPGLAGTAGEPGRDGNPGSDGLPGRDGSPGGKGDRGENGSPGAPGAPGHPGPPGPVGPAGKSGDRGESGPAGPAGAPGPAGSRGAPGPQGPRGDKGETGERGAAGIKGHRGFPGNPGAPGSPGPAGQQGAIGSPGPAGPRGPVGPSGPPGKDGTSGHPGPIGPPGPRGNRGERGSEGSPGHPGQPGPPGPPGAPGPCCGGVGAAAIAGIGGEKAGGFAPYYGDEPMDFKINTDEIMTSLKSVNGQIESLISPDGSRKNPARNCRDLKFCHPELKSGEYWVDPNQGCKLDAIKVFCNMETGETCISANPLNVPRKHWWTDSSAEKKHVWFGESMDGGFQFSYGNPELPEDVLDVHLAFLRLLSSRASQNITYHCKNSIAYMDQASGNVKKALKLMGSNEGEFKAEGNSKFTYTVLEDGCTKHTGEWSKTVFEYRTRKAVRLPIVDIAPYDIGGPDQEFGVDVGPVCFL
# modifications: pro-form
# notes: Triton X-100 extract of insect cells expressing only proα1 chains of human type III procollagen
# Tested on: prolyl 4-hydroxylase
# Assay: prolyl 4-hydroxylase activity of Triton X-100 extracts from insect cells (hydroxylation-coupled decarboxylation of 2-oxo[1-14C]glutarate)
# Assay type: biochemical
# Conditions: Triton extract, 72 h after infection
# Description: The 0.2% Triton X-100 extracts of cell homogenates were analyzed for prolyl 4-hydroxylase activity with an assay based on the hydroxylation-coupled decarboxylation of 2-oxo [1-^14C] glutarate (Kivirikko et al., Methods EnzVmol. 82: 245-304 (1982)). As reported previously (Veijola et al., J. Biol. Chem. 269: 26746-26753 (1994)), a significant level of prolyl 4-hydroxylase activity was found in both Sf9 and High Five cells, the activity in High Five cells being distinctly higher than that in Sf9 cells (Table I). […]
# Insect cells (Sf9 or High Five, Invitrogen) were cultured in TNM-FH medium (Sigma) supplemented with 10% fetal bovine serum (BioClear) or in a serum-free HyQ CCM3 medium (HyClone) either as monolayers or in suspension in shaker flasks at 27° C. […] The remaining cell pellet that was insoluble in the homogenization buffer was further solubilized in 1% SDS and analyzed by SDS-PAGE^1. […] Aliquots of the supernatants of the cell homogenates and the concentrated cell culture medium were analyzed by denaturing SDS-PAGE, followed by staining with Coomassie Brilliant Blue or Western blotting with an antibody to the N-propeptide of human type III procollagen.
molecule,measurement,setting,value
B1,Prolyl 4-hydroxylase activity,"High Five cells, mean of duplicates in three experiments",500 dpm/10 μl
same,Prolyl 4-hydroxylase activity,"Sf9 cells, mean of duplicates in one experiment",60 dpm/10 μl
